Assay [1] deals with recombinant TNF-α (Sigma-Aldrich). Description: reverse ELISA: PAP-IC without peptide on TNF-α-coated plate.
The target of a further assay is FcγIIa (R131 allele) (UniProt P12318). Description: reverse ELISA: PAP-IC without peptide on FcγIIa (R131)-coated plate. A general note: ELISA stands for enzyme-linked immunosorbent assay.
The target of another assay is FcγIIb (UniProt P31994). Description: reverse ELISA: PAP-IC without peptide on FcγIIb-coated plate.
In another assay the target is FcγIIIa (UniProt P08637). Description: reverse ELISA: PAP-IC without peptide on FcγIIIa-coated plate.

Chain of recombinant TNF-α (Sigma-Aldrich) (P01375 77-233): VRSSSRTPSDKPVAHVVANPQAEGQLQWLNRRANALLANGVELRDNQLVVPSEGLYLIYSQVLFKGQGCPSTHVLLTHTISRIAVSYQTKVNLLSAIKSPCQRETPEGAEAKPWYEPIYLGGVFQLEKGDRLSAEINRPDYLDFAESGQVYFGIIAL

As for “peroxidase-rabbit anti-peroxidase IgG immune complex (PAP complex) (from UniProt P00433 31-338)”, the OD405 worked out at 3.18 OD405 in assay [1], 1.6 OD405 with FcγIIa (R131 allele), 1.39 OD405 with FcγIIb and 1.59 OD405 with FcγIIIa.

For the origin of these results see patent US20110218157A1.
